Measured values reported in patent publication US7176008.

T1: Biotinyl-EACA-EACA-Gly-Leu-Met-Val-Gly-Gly-Val-Val-Arg-OH
T1 chain: GLMVGGVVR


Target: T1, Biotinyl-EACA-EACA-Gly-Leu-Met-Val-Gly-G …

Protein	Km (37° C.)	Km (room temperature)	Km
human soluble carboxypeptidase M (protein) LDFNYHRQEGMEAFLKTVAQNYSSVTHLHSIGKSVKGRNLWVLVVGRFPKEHRIGIPEFKYVANMHGDETVGRELLLHLIDYLVTSDGKDPEITNLINSTRIHIMPSMNPDGFEAVKKPDCYYSIGRENYNQYDLNRNFPDAFEYNNVSRQPETVAVMKWLKTETFVLSANLHGGALVASYPFDNGVQATGALYSRSLTPDDDVFQYLAHTYASRNPNMKKGDECKNKMNFPNGVTNGYSWYPLQGGMQDYNYIWAQCFEITLELSCCKYPREEKLPSFWNNNKASLIEYIKQVHLGVKGQVFDQNGNPLPNVIVEVQDRKHICPYRTNKYGEYYLLLLPGSYIINVTVPGHDPHITKVIIPEKSQNFSALKKDILLPFQGQLDSIPVSNPSCPMIPLYRNLPDHS	the value was much higher (>50 µM) at 37 °C	Km for CPM was 38 µM at room temperature	–
activated thrombin-activatable fibrinolysis inhibitor (human TAFIa) (protein) ASASYYEQYHSLNEIYSWIEFITERHPDMLTKIHIGSSFEKYPLYVLKVSGKEQAAKNAIWIDCGIHAREWISPAFCLWFIGHITQFYGIIGQYTNLLRLVDFYVMPVVNVDGYDYSWKKNRMWRKNRSFYANNHCIGTDLNRNFASKHWCEEGASSSSCSETYCGLYPESEPEVKAVASFLRRNINQIKAYISMHSYSQHIVFPYSYTRSKSKDHEELSLVASEAVRAIEKISKNTRYTHGHGSETLYLAPGGGDDWIYDLGIKYSFTIELRDTGTYGFLLPERYIKPTCREAFAAVSKIAWHVIRNV	–	–	Values of Km for TAFIa and CPB were 8 and 12 µM, respectively
human carboxypeptidase B (protein) ATGHSYEKYNKWETIEAWTQQVATENPALISRSVIGTTFEGRAIYLLKVGKAGQNKPAIFMDCGFHAREWISPAFCQWFVREAVRTYGREIQVTELLDKLDFYVLPVLNIDGYIYTWTKSRFWRKTRSTHTGSSCIGTDPNRNFDAGWCEIGASRNPCDETYCGPAAESEKETKALADFIRNKLSSIKAYLTIHSYSQMMIYPYSYAYKLGENNAELNALAKATVKELASLHGTKYTYGPGATTIYPAAGGSDDWAYDQGIRYSFTFELRDTGRYGFLLPESQIRATCEETFLAIKYVASYVLEHLY	–	–	Values of Km for TAFIa and CPB were 8 and 12 µM, respectively
